Assay [1] deals with T1, hPAR4-biotinylated peptide (Homo sapiens, UniProt Q96RI0).
T1 construct: host or cells: synthetic peptide
Description: SA chip biotin peptide SPR (Biacore, streptavidin capture). Type of assay: binding. The method, then: (§1) Biacore analysis was performed on a Biacore T200 using two different methods either an anti-mouse Fc capture approach or using a similar method as described above using the ProteoOn system.
A series S sensor chip SA was conditioned using the manufacturers recommended protocol and immobilised with 1 ug/ml hPAR4-biotinylated peptide on FC2 and hPAR1-biotinylated peptide as a control onto FC1. […] Blank injections of buffer alone were also performed. All injections were performed in duplicate and in a random order. After each capture/injection/dissociation cycle the chip was regenerated with a 30 second injection of 0.1M Glycine pH2.0.
(§2) For the mAb capture method low levels of ligand mAb and analyte hPAR4 were used in an attempt to produce a 1:1 binding interaction, this method has been used successfully to measure kinetics and affinity KD's (Kamat V and Rafique A (2017) Analytical Biochemistry 530:75-86), despite using a whole IgG.
(§3) The kinetics of the binding interaction between the mAbs and hPAR4 was measured using Surface Plasmon Resonance (SPR; Biacore) by two different methods: 1. Anti-mouse Fc mAb capture method and 2. Streptavidin (SA) chip to capture biotinylated peptide. The ka(on) rate and kd(off) rates and KD were measured and fitted to a Langmuir model using the Biacore evaluation software.

Another assay has as its target T2, hPAR4 peptide (Homo sapiens, UniProt Q96RI0).
T2 construct: host or cells: synthetic peptide
Description: mAb capture SPR (Biacore, anti-mouse Fc capture). It counts as binding. The method, then:
as §1
A series S CM5 sensor chip was activated with standard EDC/NHS amine coupling chemistry using the manufacturers recommended protocol with Goat anti-mouse IgG Fc. Anti-hPAR4 mAbs were captured at 1-2 ug/ml for 2 minutes at 10 ul/minute on flow cell 2 (FC2) and flow cell 1 (FC1) was used as a reference channel. […] Blank injections of buffer alone were also performed. All injections were performed in duplicate and in a random order. After each capture/injection/dissociation cycle the chip was regenerated with a 30 second injection of 0.1M Glycine pH2.0.
as §2, §3

The subject of assay [2] is PAR4-120Ala and PAR4-120Thr variants. Description: PAR4 thrombin cleavage assay on PAR4 variants in HEK293T cells. Type of assay: cell-based, human. Conditions: for inhibition of thrombin cleavage of Ala120 and Thr120 PAR4 variants: pre-incubation 1, 10 or 100 μg/ml before thrombin. The method, then:
1×10^6 HEK293T cells (in Dulbecco's modified eagle's medium+10% foetal calf serum) were seeded onto 12-well plates 24 hours before transfection. When confluent, they were transiently transfected with 1 μg of DNA from one of the PAR4 variants (expression vectors pBJ-FLAG-PAR4-120A-296F or pBJ-FLAG-PAR4-120T-296F; Edelstein et al (2014) Blood 124(23):3450-8) plus 4 μL of Lipofectamine 2000, as per manufacturer's instructions. Forty-eight hours after transfection, cells were harvested and washed twice with PBS, then resuspended to a count of 1×10^6/mL. Cells (50 μL assays/0.5×10^5 cells per condition) were then pre-treated with either 1, 10 or 100 μg/mL of 5RC3 or sub-clone 5A.RC3.F10b.H4b or 100 μg/mL matched Isotype control (mouse IgG1) for 15 minutes at 37° C. Cells were then stimulated with 2 U/mL of thrombin for 10 minutes. The reaction was stopped by the addition of 4 U/mL hirudin. Cells were then washed once and resuspended with PBS containing a 1:200 dilution of FITC anti-FLAG antibody (Sigma, clone M2) and incubated for 1 hour at room temperature in the dark. Cells were then fixed with 1% paraformaldehyde (final concentration) and read on a FACSCalibur flow cytometer to determine % of FL1/FITC-Positive events. Data were normalised against the resting sample (100%, no thrombin treatment).
In order to determine whether the anti-PAR4 clones could inhibit the effects of thrombin on PAR4 cleavage, in vitro inhibition assays were performed. HEK293T cells were transiently transfected with the PAR4-120Ala (A) or PAR4-120Thr (T) variants which contained a FLAG epitope upstream of the thrombin cleavage site. Cleavage of PAR4 by thrombin was measured by loss of Flag tag from the PAR4 expressing HEK293 cells using flow cytometry.
Cells were stimulated with increasing doses of thrombin (0.1-2 U/ml) and the amount of thrombin cleavage was measured as a loss of FLAG epitope using a FITC-conjugated anti-FLAG antibody by flow cytometry.

Assay [3] deals with PAR4 peptide vs PAR1, PAR2 and PAR3 peptides. Description: ELISA specificity screening, PAR4 peptide vs PAR1, 2 or 3 peptide. It counts as binding, human. Particulars: hybridoma supernatant. The method, then: (§4) 96-well ELISA plates were coated with 50 μl of antigen diluted to a concentration of 4 μg/ml in coating buffer (0.1M Sodium Hydrogen Carbonate (NaHCO3) (Merck, #1.06329.0500)). Plates were incubated overnight at 4° C.
(§5) Wells were then washed with an automated plate washer (300 μl 1×PBS, 3 times). The wells were blocked with 200 μl of blocking buffer (3% BSA/1×PBS (BSA: (Sigma, #1001647742)) for 1 hour at room temperature followed by washing as above.
50 μl of undiluted hybridoma cell culture supernatant was added into appropriate wells and incubated at room temperature for 1 hour followed by washing as above. […] Wells were washed as above. A set of substrate tablets (1×silver, 1×gold) into 20 ml of ddH20 by shaking vigorously on the thermomixer for 6 mins at room temperature. 50 μl of substrate ([…]™ p-Nitrophenyl phosphate Tablets (Sigma-Aldrich, N2770-50SET)) was added into each well and incubated for 20-25 mins at room temperature. […] Absorbance was read at 405 nm immediately after adding STOP solution with the ELISA reader, using the ‘RdrOle4’ software.
Hybridoma supernatants were initially screened for binding to the immunising PAR4 peptide sequence ([…]-KLH (SEQ ID NO: 4)) by antigen microarray, with binding determined by fluorescence intensity signal over background (signal from medium alone). […]
A general note: In an ELISA, binding on a coated surface is turned into a signal by an enzyme label.

In assay [4] the test system is hPAR4 peptides 1-9, 8-15 and 11-20. Description: Epitope mapping ELISA with overlapping hPAR4 peptides. It counts as binding, human. Particulars: peptides coated at 10 ug/ml. The method, then: Briefly the peptides were coated onto a Nunc maxisorp ELISA plate at 10 ug/ml overnight in coating buffer (0.1M sodium carbonate pH8.0). Purified mAbs diluted in PBS were used in place of supernatant.

The target in another assay is T3, native PAR4 peptide (Homo sapiens, UniProt Q96RI0).
T3 construct: host or cells: synthetic peptide
Description: ELISA screening of hybridoma supernatants, native vs KLH-linked PAR4 peptide. It counts as binding. Conditions: first screening; second sub-clone. The method, then:
as §4, §5
50 μl of undiluted hybridoma cell culture supernatant was added into appropriate wells and incubated at room temperature for 1 hour followed by washing as above. […] Wells were washed as above. A set of substrate tablets (1×silver, 1×gold) into 20 ml of ddH20 by shaking vigorously on the thermomixer for 6 mins at room temperature. 50 μl of substrate ([…]™ p-Nitrophenyl phosphate Tablets (Sigma-Aldrich, N2770-50SET)) was added into each well and incubated for 20-25 mins at room temperature. 50 μl of STOP solution (2M Sodium Hydroxide, Solid (NaOH) (Merck, Cas #1310-73-2)) was added into each well to stop the reaction. Absorbance was read at 405 nm immediately after adding STOP solution with the ELISA reader, using the ‘RdrOle4’ software.

Entries after “also recorded” stand apart in the source; their conditions may differ.

T1 sequence (Q96RI0 with tags, fused parts or gaps limits assumed): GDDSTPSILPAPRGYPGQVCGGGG
T2 sequence (Q96RI0 35-54 limits assumed): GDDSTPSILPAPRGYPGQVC

B1: 5A.RC3: anti-PAR4 monoclonal antibody, IgG2a/K, VH SEQ ID NO:11 and VL SEQ ID NO:12 (antibody, V domains shown)
VH: QVQLVESGGGVVQPGRSLRLSCAASGFTLSNYGMHWVRQAPGKGLEWVSVIWYDGSNKHYADSVKGRFTISRDNSKNTLYLQMNSLRAEDTAVYYCARESIVEVLPPFDYWGQGTLVTVSS
VL: KIVLTQSPGTLSLSPGERVTLSCRASQRVRNNYLAWFQQKPGQAPRLFIYGASSRATGIPDRFSGSGSGTDFIFTISRLEPEDFAVYYCQQYGNSYTFGQGTKLEIK
modifications: VH of 5A.RC3; VL of 5A.RC3
On to B1, for which the ka is 1.32e+06 M⁻¹ s⁻¹ in assay [1] and 330000 M⁻¹ s⁻¹ with hPAR4 peptide. In addition, the kd is 0.000417 s⁻¹ in assay [1] and 0.00487 s⁻¹ in the assay with hPAR4 peptide. Further, in assay [2], the “reversal of inhibition by the immunising peptide” value is on record as “reversed”. Moreover, the entries for the “inhibition of thrombin cleavage of Ala120 and Thr120 PAR4 variants” value in assay [2] and in assay [2] (listed as 5A.RC3.H4b) were “near complete inhibition of thrombin cleavage; also recorded: significantly inhibited thrombin induced PAR4 cleavage” and “effectively inhibited cleavage of PAR4 expressed on the surface of HEK293 cells in a dose dependent manner”, respectively. For the same molecule, in assay [3], the “selectivity to human PAR4 peptide over PAR1, PAR2 and PAR3” value worked out at 16 fold. The “hPAR4 peptide the mAb reacted with” value in assay [4] is given as “amino acid residues 8-15”. Besides, the “Fold binding native vs KLH-linked PAR4 peptide” value with native PAR4 peptide came out at 19.3.
